# Where two headings read alike, the source gives them in different places.
# Assays:
# Jurkat cells = assay: intracellular entry, immunofluorescence in Jurkat cells; assay type: cell-based; details: 2 μM for one hour, analyzed 24 h later
# Protocol: Light transmission and fluorescence images are shown for representative cells.
# The immunofluorescence tests were carried out with a primary anti-FLAG antibody in a dilution of 1:500 incubated for 2 hours and a secondary antibody coupled to the Alexa Fluor 488 fluorophore (Molecular Probes) diluted 1:1000, incubated for one hour.
# To confirm that SHPs do indeed enter the cell, immunofluorescence analyses were also carried out. Jurkat cells were incubated with 1 μM of SHP for 4 hours and after washing twice, the cells were cultured for 24 hours.
# HIV-1/Ba-L = assay: antiviral test in monocyte-derived macrophages (MDM), RT activity; assay type: cell-based
# Protocol: (§1) These viruses were amplified in vitro with umbilical blood mononuclear cells (UBMC) activated with PHA-P. The cell-free supernatant was centrifuged at […] for 10 minutes to eliminate soluble factors, and the residue was re-suspended in cell culture medium. Virus stocks were titrated using PBMC cells activated with PHA-P and 50% tissue culture infectious doses (TCID50) were calculated using Kärber's formula.
# The MDM cells were pre-treated for 30 minutes in 6 concentrations of different molecules and infected with 30000 TCID50 of the HIV-1/Ba-L strain. AZT (0.8, 4, 20, 100 and 500 nM) and indinavir (0.8, 4, 20, 100 and 500 nM) were used as the control. […] The molecules were maintained for 7 days post infection, and the cellular supernatant was harvested 7, 14 and 21 days post infection and stored at −20° C. to measure viral replication by reverse transcriptase activity (RT) assay.
# (§2) HIV replication was analyzed by assaying the RT activity in the supernatants from cell cultures using the RetroSys RT kit (Innovagen). The experiments were carried out 3 times and the results are expressed as the mean of the RT activity±the standard deviation (SD).
# Rev/RRE association = Rev/RRE association (Human immunodeficiency virus type 1 group M subtype B, UniProt P04618); details: Rev produced in bacteria, RRE RNA probe
# Protocol: To this end, gel retard experiments were carried out with a RNA molecule corresponding to the RRE element as the probe. The Rev protein produced in bacteria binds to this RNA and induces a non denaturing polyacrylamide gel migration retardation.
# GST-Rev = GST-Rev (Human immunodeficiency virus type 1 group M subtype B, UniProt P04618); details: eluted with glutathione, immunoblot
# Protocol: GXT-Rev was produced in bacteria and loaded onto an agarose-glutathion column. […] After rinsing, the proteins were eluted with glutathione. An aliquot of the feed, rinse and elution fractions was analyzed by immunoblot for GST-Rev (top graph) and for SHP using antibodies against GST or against FLAG respectively.
# The SHPR activity was evaluated using the reporter construct pDM128 which included the coding sequence CAT and an RRE motif in an intron. Expression of Rev stimulated expression of CAT allowing an unspliced messenger to be exported to the cytoplasm. […] It was verified whether this inhibition was in fact directly correlated with a protein-protein interaction as predicted. To this end, both Rev and the SHPRs were produced in bacteria. […] Rev was expressed in fusion with GST and coupled to glutathione-agarose beads.
# HIV-1-LA1 = assay: antiviral test in PHA-P activated PBMC, RT activity; assay type: cell-based; details: for anti-HIV activity, replication of HIV-1-LA1: PBMC activated by PHA-P, 7th day, in words; for Percentage inhibition, Mean: HIV-1 LA1, day 7
# Protocol: as §1
# PBMC cells were pre-treated for 30 minutes by 5 concentrations of each molecule and infected with 75 TCID50 of the HIV-1-LA1 strain. AZT (1.6, 8, 40, 200 and 1000 nM) and indinavir (1.6, 8, 40, 200 and 1000 nM) were used as the control. […] The molecules were maintained throughout culture, and the cellular supernatant was harvested 7 days post infection and stored at −20° C. to measure viral replication by reverse transcriptase activity (RT) assay.
# as §2
# In a last step, it was examined whether SHPs were actually capable of inhibiting HIV-1 replication. This was carried out in PBMCs activated by PHA-P and in MDMs. […] The effects of different SHPs was thus tested at this time. AZT and indinavir were used as controls.
# Tat = target: T1, Tat (Human immunodeficiency virus type 1 group M subtype B, UniProt P04608); assay: Tat functional test, LTR HIV-CAT reporter in HeLa cells; assay type: cell-based, HIV-1; details: higher concentrations
# T1 construct: expressed in transfected cells; host or cells: HeLa
# T1 sequence (P04608 whole entry): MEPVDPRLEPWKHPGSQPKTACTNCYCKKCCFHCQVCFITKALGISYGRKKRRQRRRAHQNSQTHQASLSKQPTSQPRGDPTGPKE
# Protocol: The effect of the 4 SHPTs on the transactivation of the HIV-1 promoter by Tat was evaluated by transitory expression experiments in HeLa cells.
# Rev = Rev (Human immunodeficiency virus type 1 group M subtype B, UniProt P04618); details: HeLa cells
# Protocol: This type of indicative construct allowed an evaluation of the effect of Rev, which by causing transport towards the cytoplasm of the non spliced RNA, allowed expression of the CAT enzyme.
# The CAT activity was measured using the CAT ELISA kit (Roche).
# These various mutants were tested using a transitory expression system consisting of transfecting HeLa cells of the reporter plasmid having the CAT sequence associated with the RRE in the intronic position with expression vectors for the Rev protein and the SHPR protein. […] The separation between the two values was less than 20%.
# These vectors were transfected with the reporter plasmid pDM128 and the expression vector Rev as described in the above sections (and in Roisin et al, JBC (2004) 279: 9208). The quantity of CAT protein is expressed as a % of that corresponding to transfection of parental SHPR. A value of more than 100 thus indicates a negative effect on the inhibiting power of SHPR and a lower value indicates an increase in this inhibiting property.
# LexNES (NES of Rev) = LexNES (NES of Rev) (Human immunodeficiency virus type 1 group M subtype B, UniProt P04618); details: in words; method not stated
# LexNES (NES of Rev), sequence (P04618 70-96): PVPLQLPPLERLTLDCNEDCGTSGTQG
# [1] = MDMs, HIV-1/Ba-L, Day 7, dose 62.5 (nM)
# [2] = MDMs, HIV-1/Ba-L, Day 7, dose 125 (nM)
# [3] = MDMs, HIV-1/Ba-L, Day 7, dose 250 (nM)
# [4] = MDMs, HIV-1/Ba-L, Day 7, dose 500 (nM)
# [5] = MDMs, HIV-1/Ba-L, Day 7, dose 1000 (nM)
# [6] = MDMs, HIV-1/Ba-L, Day 7, dose 2000 (nM)
# [7] = MDMs, HIV-1/Ba-L, Day 14, dose 62.5 (nM)
# [8] = MDMs, HIV-1/Ba-L, Day 14, dose 125 (nM)
# [9] = MDMs, HIV-1/Ba-L, Day 14, dose 250 (nM)
# [10] = MDMs, HIV-1/Ba-L, Day 14, dose 500 (nM)
# [11] = MDMs, HIV-1/Ba-L, Day 14, dose 1000 (nM)
# [12] = MDMs, HIV-1/Ba-L, Day 14, dose 2000 (nM)
# [13] = MDMs, HIV-1/Ba-L, Day 21, dose 62.5 (nM)
# [14] = MDMs, HIV-1/Ba-L, Day 21, dose 125 (nM)
# [15] = MDMs, HIV-1/Ba-L, Day 21, dose 250 (nM)
# [16] = MDMs, HIV-1/Ba-L, Day 21, dose 500 (nM)
# [17] = MDMs, HIV-1/Ba-L, Day 21, dose 1000 (nM)
# [18] = MDMs, HIV-1/Ba-L, Day 21, dose 2000 (nM)
molecule,measurement,setting,value
SHPT-8: SUMO-1-heptapeptide-Tat PTD protein selected against Tat; heptapeptide Phe Thr Met Arg Gly Val Asp (SEQ ID NO: 38) (protein) MSDQEAKPSTEDLGDKKEGEYIKLKVIGQDSSEIHFKVKMTTHLKKLKESYCQRQGVPMNSLRFLFEGQRIADNHTPKELGMEEEDVIEVYQEQTARPPNPKKEIELGGGGSFTMRGVDPGRKKRRQRRRG,immunofluorescence with antibody against FLAG,Jurkat cells,diffuse fluorescence
same,inhibition of HIV replication,"HIV-1/Ba-L; MDM, 2 μM on day 14",69±6%
same,"Percentage inhibition, Mean",HIV-1/Ba-L; [1],5%
same,"Percentage inhibition, Mean",HIV-1/Ba-L; [2],39%
same,"Percentage inhibition, Mean",HIV-1/Ba-L; [3],78%
same,"Percentage inhibition, Mean",HIV-1/Ba-L; [4],78%
same,"Percentage inhibition, Mean",HIV-1/Ba-L; [5],70%
same,"Percentage inhibition, Mean",HIV-1/Ba-L; [6],84%
same,ED70,"HIV-1/Ba-L; MDMs, HIV-1/Ba-L, Day 14",2.05 µM
same,ED90,"HIV-1/Ba-L; MDMs, HIV-1/Ba-L, Day 14",5.5 µM
same,"Percentage inhibition, Mean",HIV-1/Ba-L; [7],0%
same,"Percentage inhibition, Mean",HIV-1/Ba-L; [8],2%
same,"Percentage inhibition, Mean",HIV-1/Ba-L; [9],55%
same,"Percentage inhibition, Mean",HIV-1/Ba-L; [10],50%
same,"Percentage inhibition, Mean",HIV-1/Ba-L; [11],46%
same,"Percentage inhibition, Mean",HIV-1/Ba-L; [12],69%
same,"Percentage inhibition, Mean",HIV-1/Ba-L; [13],0%
same,"Percentage inhibition, Mean",HIV-1/Ba-L; [14],5%
same,"Percentage inhibition, Mean",HIV-1/Ba-L; [15],37%
same,"Percentage inhibition, Mean",HIV-1/Ba-L; [16],21%
same,"Percentage inhibition, Mean",HIV-1/Ba-L; [17],20%
same,"Percentage inhibition, Mean",HIV-1/Ba-L; [18],59%
same,effect on Rev/RRE association (gel retardation),Rev/RRE association,no particular effect
same,co-elution with GST-Rev,GST-Rev,no SHPT was present in fractions containing GST-Rev
same,co-elution with GST-Rev,GST-Rev; listed as SHPR-8,did not bind to the protein on the column
same,"anti-HIV activity, replication of HIV-1-LA1",HIV-1-LA1,did not have any anti-HIV activity
same,"Percentage inhibition, Mean","HIV-1-LA1; PBMCs, Dose 31 (nM)",0%
same,"Percentage inhibition, Mean","HIV-1-LA1; PBMCs, Dose 62.5 (nM)",0%
same,"Percentage inhibition, Mean","HIV-1-LA1; PBMCs, Dose 125 (nM)",0%
same,"Percentage inhibition, Mean","HIV-1-LA1; PBMCs, Dose 250 (nM)",0%
same,"Percentage inhibition, Mean","HIV-1-LA1; PBMCs, Dose 500 (nM)",0%
same,"Percentage inhibition, Mean","HIV-1-LA1; PBMCs, Dose 1000 (nM)",0%
same,"Percentage inhibition, Mean","HIV-1-LA1; PBMCs, Dose 2000 (nM)",0%
same,Tat transactivation of the HIV-1 promoter,Tat,slight reduction in transactivation
"SHPR-142: SUMO-1-heptapeptide-Tat PTD protein against Rev; heptapeptide Phe Trp Phe Cys Gly Leu Lys (SEQ ID NO: 2) (protein, left off: small tags and cut ends) MSDQEAKPSTEDLGDKKEGEYIKLKVIGQDSSEIHFKVKMTTHLKKLKESYCQRQGVPMNSLRFLFEGQRIADNHTPKELGMEEEDVIEVYQEQTARPPNPKKEIELGGGGSFWFCGLKPGRKKRRQRRRG",immunofluorescence with antibody against FLAG,Jurkat cells,diffuse fluorescence
same,inhibition of HIV replication,"HIV-1/Ba-L; MDM, 1 μM",not effect
same,inhibition of HIV replication,"HIV-1/Ba-L; MDM, 2 μM on day 14",44±10%
same,"anti-HIV activity, HIV-1/Ba-L replication","HIV-1/Ba-L; MDM, in words",slight inhibition of HIV replication
same,"Percentage inhibition, Mean",HIV-1/Ba-L; [1],0%
same,"Percentage inhibition, Mean",HIV-1/Ba-L; [2],0%
same,"Percentage inhibition, Mean",HIV-1/Ba-L; [3],0%
same,"Percentage inhibition, Mean",HIV-1/Ba-L; [4],0%
same,"Percentage inhibition, Mean",HIV-1/Ba-L; [5],3%
same,"Percentage inhibition, Mean",HIV-1/Ba-L; [6],35%
same,"Percentage inhibition, Mean",HIV-1/Ba-L; [7],0%
same,"Percentage inhibition, Mean",HIV-1/Ba-L; [8],0%
same,"Percentage inhibition, Mean",HIV-1/Ba-L; [9],0%
same,"Percentage inhibition, Mean",HIV-1/Ba-L; [10],0%
same,"Percentage inhibition, Mean",HIV-1/Ba-L; [11],0%
same,"Percentage inhibition, Mean",HIV-1/Ba-L; [12],44%
same,"Percentage inhibition, Mean",HIV-1/Ba-L; [13],0%
same,"Percentage inhibition, Mean",HIV-1/Ba-L; [14],0%
same,"Percentage inhibition, Mean",HIV-1/Ba-L; [15],0%
same,"Percentage inhibition, Mean",HIV-1/Ba-L; [16],0%
same,"Percentage inhibition, Mean",HIV-1/Ba-L; [17],0%
same,"Percentage inhibition, Mean",HIV-1/Ba-L; [18],18%
same,effect on Rev/RRE association (gel retardation),Rev/RRE association,did not inhibit this association
same,inhibition of the function of Rev (CAT from pDM128),Rev,effective inhibitors of the function of Rev
same,"anti-HIV activity, replication of HIV-1-LA1",HIV-1-LA1,reduced replication
same,reduction of HIV-1 replication,"HIV-1-LA1; PBMC activated with PHA-P, 2 μM",73±6%
same,ED70,"HIV-1-LA1; PBMCs, HIV-1-LA1, 7th day",2.1 µM
same,ED90,"HIV-1-LA1; PBMCs, HIV-1-LA1, 7th day",4.6 µM
same,"Percentage inhibition, Mean","HIV-1-LA1; PBMCs, Dose 31 (nM)",0%
same,"Percentage inhibition, Mean","HIV-1-LA1; PBMCs, Dose 62.5 (nM)",0%
same,"Percentage inhibition, Mean","HIV-1-LA1; PBMCs, Dose 125 (nM)",0%
same,"Percentage inhibition, Mean","HIV-1-LA1; PBMCs, Dose 250 (nM)",0%
same,"Percentage inhibition, Mean","HIV-1-LA1; PBMCs, Dose 500 (nM)",19%
same,"Percentage inhibition, Mean","HIV-1-LA1; PBMCs, Dose 1000 (nM)",26%
same,"Percentage inhibition, Mean","HIV-1-LA1; PBMCs, Dose 2000 (nM)",73%
same,interaction with the NES signal of Rev,LexNES (NES of Rev),interacts with Rev NES
